Values joined by “and” are separate entries in the source; they are usually repeats but may differ in a detail not shown here. Equal entries are not always repeated.
Tests used:
[1] = target: T1, huntingtin exon 1-thioredoxin (TRX) fusion protein with 39 glutamines (Homo sapiens, UniProt P42858, strain); test: SEC-MALS
[2] = target: T2, huntingtin exon 1-thioredoxin (TRX) fusion protein with 16 glutamines (Homo sapiens, UniProt P42858, strain); test: SEC-MALS
[3] = target: T1, huntingtin exon 1-thioredoxin (TRX) …; test: SEC
[4] = target: T2, huntingtin exon 1-thioredoxin (TRX) …; test: small angle X-ray scattering

T1 sequence (P42858 whole entry, looked up, change not shown, the tested form may be a part): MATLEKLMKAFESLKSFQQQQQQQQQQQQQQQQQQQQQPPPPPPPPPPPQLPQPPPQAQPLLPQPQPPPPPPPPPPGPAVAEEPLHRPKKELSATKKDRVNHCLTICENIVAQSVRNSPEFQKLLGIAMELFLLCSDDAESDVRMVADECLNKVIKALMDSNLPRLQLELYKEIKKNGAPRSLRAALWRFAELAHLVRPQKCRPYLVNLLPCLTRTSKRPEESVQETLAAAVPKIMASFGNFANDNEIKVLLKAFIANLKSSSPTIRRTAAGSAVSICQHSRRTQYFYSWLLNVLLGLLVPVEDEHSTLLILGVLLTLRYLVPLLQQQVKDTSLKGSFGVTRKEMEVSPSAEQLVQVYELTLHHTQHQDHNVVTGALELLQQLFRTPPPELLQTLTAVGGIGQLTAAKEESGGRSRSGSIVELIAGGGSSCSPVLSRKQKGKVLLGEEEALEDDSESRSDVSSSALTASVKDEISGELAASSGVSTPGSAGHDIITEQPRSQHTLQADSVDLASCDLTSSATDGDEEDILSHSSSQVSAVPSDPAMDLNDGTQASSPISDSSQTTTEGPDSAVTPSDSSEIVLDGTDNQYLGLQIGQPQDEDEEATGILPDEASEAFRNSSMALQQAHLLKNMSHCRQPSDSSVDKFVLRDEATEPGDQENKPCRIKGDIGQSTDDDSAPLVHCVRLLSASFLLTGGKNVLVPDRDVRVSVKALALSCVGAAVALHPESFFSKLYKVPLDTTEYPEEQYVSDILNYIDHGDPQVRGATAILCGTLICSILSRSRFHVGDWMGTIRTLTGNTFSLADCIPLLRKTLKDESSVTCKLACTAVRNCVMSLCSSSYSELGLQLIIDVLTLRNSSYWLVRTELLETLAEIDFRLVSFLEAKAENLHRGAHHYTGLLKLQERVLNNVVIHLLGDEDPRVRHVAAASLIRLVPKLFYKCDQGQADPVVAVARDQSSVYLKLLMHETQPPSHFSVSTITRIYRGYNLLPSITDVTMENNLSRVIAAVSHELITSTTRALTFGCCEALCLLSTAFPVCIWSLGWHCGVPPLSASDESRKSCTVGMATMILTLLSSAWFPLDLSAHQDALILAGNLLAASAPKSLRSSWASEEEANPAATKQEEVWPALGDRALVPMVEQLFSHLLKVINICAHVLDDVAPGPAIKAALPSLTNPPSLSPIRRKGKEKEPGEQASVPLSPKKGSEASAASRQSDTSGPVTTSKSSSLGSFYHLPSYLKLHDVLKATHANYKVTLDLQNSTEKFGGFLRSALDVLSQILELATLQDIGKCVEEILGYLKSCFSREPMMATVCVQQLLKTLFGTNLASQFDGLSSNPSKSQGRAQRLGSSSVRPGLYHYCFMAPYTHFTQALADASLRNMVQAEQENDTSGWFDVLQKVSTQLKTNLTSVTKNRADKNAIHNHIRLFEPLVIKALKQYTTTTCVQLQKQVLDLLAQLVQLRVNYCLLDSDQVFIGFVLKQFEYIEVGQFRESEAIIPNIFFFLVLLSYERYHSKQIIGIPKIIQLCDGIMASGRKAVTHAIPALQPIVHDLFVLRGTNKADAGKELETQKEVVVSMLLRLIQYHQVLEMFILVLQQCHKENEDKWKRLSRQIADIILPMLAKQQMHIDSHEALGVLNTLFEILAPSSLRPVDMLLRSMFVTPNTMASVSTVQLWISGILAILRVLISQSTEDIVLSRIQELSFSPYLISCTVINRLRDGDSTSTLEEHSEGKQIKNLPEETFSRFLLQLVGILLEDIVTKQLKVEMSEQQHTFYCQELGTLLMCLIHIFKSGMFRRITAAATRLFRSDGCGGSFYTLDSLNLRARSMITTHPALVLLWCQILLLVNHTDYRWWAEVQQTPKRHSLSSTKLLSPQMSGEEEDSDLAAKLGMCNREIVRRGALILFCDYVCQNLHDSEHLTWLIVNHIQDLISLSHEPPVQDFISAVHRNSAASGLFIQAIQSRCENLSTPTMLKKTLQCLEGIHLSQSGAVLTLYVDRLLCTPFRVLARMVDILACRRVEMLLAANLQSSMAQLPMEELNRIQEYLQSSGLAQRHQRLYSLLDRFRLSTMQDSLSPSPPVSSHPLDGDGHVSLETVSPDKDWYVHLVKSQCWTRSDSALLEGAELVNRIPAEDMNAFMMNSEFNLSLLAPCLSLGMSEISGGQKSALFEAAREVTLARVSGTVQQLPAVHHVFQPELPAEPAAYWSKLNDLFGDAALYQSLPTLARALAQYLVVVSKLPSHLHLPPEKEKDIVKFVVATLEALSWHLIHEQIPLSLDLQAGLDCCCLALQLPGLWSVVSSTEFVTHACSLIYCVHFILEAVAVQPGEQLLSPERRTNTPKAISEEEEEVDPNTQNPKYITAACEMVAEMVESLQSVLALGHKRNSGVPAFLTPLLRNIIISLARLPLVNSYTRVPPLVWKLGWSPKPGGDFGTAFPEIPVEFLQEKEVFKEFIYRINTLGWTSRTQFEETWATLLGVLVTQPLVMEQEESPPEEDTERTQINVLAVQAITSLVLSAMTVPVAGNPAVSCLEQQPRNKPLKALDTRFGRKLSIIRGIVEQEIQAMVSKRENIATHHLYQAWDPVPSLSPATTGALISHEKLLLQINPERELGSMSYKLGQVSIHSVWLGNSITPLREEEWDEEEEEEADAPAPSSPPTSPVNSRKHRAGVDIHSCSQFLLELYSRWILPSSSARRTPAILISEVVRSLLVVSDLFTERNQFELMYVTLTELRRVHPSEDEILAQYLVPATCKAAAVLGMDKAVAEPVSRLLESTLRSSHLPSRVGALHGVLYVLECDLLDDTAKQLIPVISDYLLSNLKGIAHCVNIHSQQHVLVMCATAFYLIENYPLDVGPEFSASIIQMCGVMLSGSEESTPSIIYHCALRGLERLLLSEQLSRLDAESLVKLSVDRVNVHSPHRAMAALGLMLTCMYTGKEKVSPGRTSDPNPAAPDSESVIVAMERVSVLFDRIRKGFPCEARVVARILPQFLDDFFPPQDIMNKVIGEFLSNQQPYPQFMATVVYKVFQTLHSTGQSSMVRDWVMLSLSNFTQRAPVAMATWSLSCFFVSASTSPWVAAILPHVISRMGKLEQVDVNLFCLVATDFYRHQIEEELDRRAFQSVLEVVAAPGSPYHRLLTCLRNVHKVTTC
T2 sequence (P42858 whole entry, looked up, change not shown, the tested form may be a part): as above

- stoichiometry N [1]: > 1 3B5H10 Fab:HD-39Q and < 2 3B5H10 Fab:HD-39Q
- stoichiometry N [2]: 1 3B5H10 Fab:HD-16Q
- N at 5 μM 3B5H10 Fab in the equilibration buffer (ratio with flat baseline) [3]: ~2.6 Fab:HD-39Q
- stoichiometry N [3]: 3 Fab:HD-39Q
- stoichiometry N [4]: 1 Fab:HD-16Q
B1: 3B5H10 Fab (Fab, V domains shown)
VH: QIQLVQSGPELKKPGETVKISCKASGYTFTTYGMSWVKQAPGKGFEWMGWINTYSGVPTYVDDFKGRFAFSLETSASTAYLQINNLKNEDTAVYFCARGGDNYLWFAYWGQGTLVTVSA
VL: QLVLTQSSSASFSLGASAKLTCTLNSQHSTYTIEWYQQQPLKPPKYVMELKKDGSHSTGDGIPDRFSGSSSGADRYLSISNIQPEDEAIYICGVGDTIKEQFVYVFGGGTKVTVL
